From the supplement of paper PMC9112550, “Optimization of the antimicrobial peptide Bac7 by deep mutational scanning” (BMC Biology, 2022)

system: Escherichia coli TOP10; assay: shrunken log2 fold change of peptide-encoding DNA abundance (4.5 h post-induction vs induction); higher = less antimicrobial activity (less host growth inhibition); conditions: time post-induction: 4.5 h; library: site-saturation at positions 5, 18, 19, 20
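Note: peptides expressed intracellularly from a pBAD plasmid library in pooled LB shake-flask culture, induced with 0.3% L-arabinose, DNA abundance read by NGS, three biological replicates, DESeq2 with apeglm shrinkage.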

Sequence | shrunken log2 fold change
RRIRQRPPRLPRPRPRPRIIPRP | 0.00299
RRIRIRPPRLPRPRPRPEVQPRP | -0.022
RRIRIRPPRLPRPRPRPDMGPRP | -0.0742
RRIRKRPPRLPRPRPRPWEAPRP | 0.0326
RRIRSRPPRLPRPRPRPEHQPRP | 0.163
RRIRVRPPRLPRPRPRPEPVPRP | 0.365
RRIRARPPRLPRPRPRPLVVPRP | 0.194
RRIRVRPPRLPRPRPRPNVNPRP | -0.494
RRIRWRPPRLPRPRPRPWKMPRP | -0.0467
RRIRSRPPRLPRPRPRPAFLPRP | -0.0125
RRIRPRPPRLPRPRPRPQCAPRP | 0.167
RRIRGRPPRLPRPRPRPMNPPRP | 0.217
RRIRWRPPRLPRPRPRPYDYPRP | -0.262
RRIRNRPPRLPRPRPRPCPNPRP | -0.344
RRIRMRPPRLPRPRPRPVYIPRP | -0.0842
RRIRMRPPRLPRPRPRPHTPPRP | 0.137
RRIRCRPPRLPRPRPRPPTQPRP | 0.515
RRIRMRPPRLPRPRPRPQNDPRP | -0.179
RRIRPRPPRLPRPRPRPAKMPRP | 0.0216
RRIRLRPPRLPRPRPRPMPEPRP | 0.221
RRIRARPPRLPRPRPRPMTCPRP | -0.29
RRIRHRPPRLPRPRPRPMHFPRP | -0.0161
RRIRWRPPRLPRPRPRPSFFPRP | 0.0041
RRIRGRPPRLPRPRPRPSIIPRP | 0.211
RRIRKRPPRLPRPRPRPYQNPRP | -0.198

Sequence | shrunken log2 fold change
RRIRARPPRLPRPRPRPNLWPRP | 0.467
RRIRTRPPRLPRPRPRPNLHPRP | -0.725
RRIRWRPPRLPRPRPRPVPMPRP | 0.221
RRIRLRPPRLPRPRPRPCFVPRP | -0.392
RRIRLRPPRLPRPRPRPPMIPRP | -0.0218
RRIRWRPPRLPRPRPRPNYDPRP | -0.24
RRIRGRPPRLPRPRPRPYPVPRP | 0.0121
RRIRFRPPRLPRPRPRPLGSPRP | 0.192
RRIRERPPRLPRPRPRPRWLPRP | 0.108
RRIRTRPPRLPRPRPRPVYEPRP | 0.00717
RRIRWRPPRLPRPRPRPQFFPRP | -0.134
RRIRGRPPRLPRPRPRPEVEPRP | 2.03
RRIRGRPPRLPRPRPRPNEGPRP | 0.0414
RRIRDRPPRLPRPRPRPLGVPRP | 0.577
RRIRCRPPRLPRPRPRPILFPRP | -0.405
RRIRDRPPRLPRPRPRPEEWPRP | 0.0446
RRIRKRPPRLPRPRPRPCRTPRP | 0.0438
RRIRPRPPRLPRPRPRPFPPPRP | -0.0227
RRIRSRPPRLPRPRPRPIDEPRP | 0.0325
RRIRQRPPRLPRPRPRPYEKPRP | -0.0946
RRIRKRPPRLPRPRPRPSIDPRP | 0.175
RRIRFRPPRLPRPRPRPPPHPRP | 1.37
RRIRNRPPRLPRPRPRPKWVPRP | 0.132
RRIRSRPPRLPRPRPRPEASPRP | 0.715
RRIRMRPPRLPRPRPRPNRLPRP | 0.0386

Sequence | shrunken log2 fold change
RRIRKRPPRLPRPRPRPGSNPRP | -0.0467
RRIRSRPPRLPRPRPRPSFTPRP | -0.524
RRIRQRPPRLPRPRPRPTELPRP | 0.124
RRIRPRPPRLPRPRPRPTHVPRP | 0.317
RRIRERPPRLPRPRPRPQHVPRP | -0.356
RRIRVRPPRLPRPRPRPHMNPRP | -0.499
RRIRVRPPRLPRPRPRPQHQPRP | -0.571
RRIRGRPPRLPRPRPRPNMLPRP | 0.374
RRIRWRPPRLPRPRPRPNCAPRP | 0.255
RRIRERPPRLPRPRPRPMTCPRP | -0.00926
RRIRFRPPRLPRPRPRPRRAPRP | 0.678
RRIRKRPPRLPRPRPRPQRPPRP | 0.518
RRIRARPPRLPRPRPRPENLPRP | 0.0156
RRIRARPPRLPRPRPRPFRWPRP | -0.0369
RRIRARPPRLPRPRPRPSFFPRP | 0.238
RRIRYRPPRLPRPRPRPVEAPRP | -0.35
RRIRCRPPRLPRPRPRPVGQPRP | 0.0533
RRIRMRPPRLPRPRPRPRHLPRP | -0.0764
RRIRWRPPRLPRPRPRPYYHPRP | -0.306
RRIRGRPPRLPRPRPRPCSMPRP | -0.0323
RRIRGRPPRLPRPRPRPFAAPRP | 1.82
RRIRVRPPRLPRPRPRPGCDPRP | 0.952
RRIRGRPPRLPRPRPRPQDVPRP | 0.0766
RRIRLRPPRLPRPRPRPYEDPRP | -0.125
RRIRTRPPRLPRPRPRPQKEPRP | 0.0092

Sequence | shrunken log2 fold change
RRIRTRPPRLPRPRPRPEWGPRP | 0.249
RRIRCRPPRLPRPRPRPTAEPRP | 0.363
RRIRNRPPRLPRPRPRPNLDPRP | -0.136
RRIRERPPRLPRPRPRPLAYPRP | -0.203
RRIRQRPPRLPRPRPRPFVTPRP | -1.13
RRIRGRPPRLPRPRPRPPGCPRP | 0.895
RRIRHRPPRLPRPRPRPWYEPRP | -1.06
RRIRERPPRLPRPRPRPHPAPRP | 0.039
RRIRYRPPRLPRPRPRPKLPPRP | 0.108
RRIRDRPPRLPRPRPRPRGAPRP | 0.772
RRIRIRPPRLPRPRPRPYPKPRP | -0.0684
RRIRCRPPRLPRPRPRPHMEPRP | -0.194
RRIRCRPPRLPRPRPRPMVLPRP | -0.388
RRIRYRPPRLPRPRPRPQTCPRP | -0.0146
RRIRTRPPRLPRPRPRPCIYPRP | -0.264
RRIRGRPPRLPRPRPRPWRLPRP | -0.0196
RRIRIRPPRLPRPRPRPWMIPRP | -0.0493
RRIRLRPPRLPRPRPRPAPYPRP | 0.0426
RRIRFRPPRLPRPRPRPHYVPRP | -1.78
RRIRMRPPRLPRPRPRPIWNPRP | -0.0214
RRIRHRPPRLPRPRPRPHIDPRP | -0.241
RRIRLRPPRLPRPRPRPKPRPRP | 0.729
RRIRIRPPRLPRPRPRPHYEPRP | -0.618
RRIRTRPPRLPRPRPRPNVSPRP | -0.0389
RRIRDRPPRLPRPRPRPCKQPRP | -0.00787

Sequence | shrunken log2 fold change
RRIRHRPPRLPRPRPRPVDYPRP | -0.253
RRIRWRPPRLPRPRPRPSPWPRP | 0.0588
RRIRPRPPRLPRPRPRPLKAPRP | -0.0747
RRIRVRPPRLPRPRPRPDCEPRP | -0.0964
RRIRHRPPRLPRPRPRPWAKPRP | -0.235
RRIRYRPPRLPRPRPRPEGGPRP | 0.0214
RRIRGRPPRLPRPRPRPFFLPRP | 0.301
RRIRRRPPRLPRPRPRPYHTPRP | -1.28
RRIRTRPPRLPRPRPRPQWTPRP | -1.27
RRIRYRPPRLPRPRPRPYIAPRP | -1.23
RRIRCRPPRLPRPRPRPVDLPRP | -0.348
RRIRMRPPRLPRPRPRPRKMPRP | 0.356
RRIRLRPPRLPRPRPRPSNLPRP | -0.181
RRIRERPPRLPRPRPRPCFGPRP | -0.252
RRIRWRPPRLPRPRPRPDPSPRP | -0.0349
RRIRTRPPRLPRPRPRPFQMPRP | -0.135
RRIRMRPPRLPRPRPRPNICPRP | 0.021
RRIRDRPPRLPRPRPRPMFYPRP | -0.305
RRIRNRPPRLPRPRPRPFMTPRP | -0.429
RRIRARPPRLPRPRPRPSLHPRP | 0.162
RRIRERPPRLPRPRPRPVCYPRP | -0.266
RRIRDRPPRLPRPRPRPRFMPRP | -0.0192
RRIRARPPRLPRPRPRPWYNPRP | -0.305
RRIRNRPPRLPRPRPRPCQQPRP | -0.0105
RRIRHRPPRLPRPRPRPMLHPRP | 0.195

Sequence | shrunken log2 fold change
RRIRTRPPRLPRPRPRPNGFPRP | -0.0646
RRIRARPPRLPRPRPRPFPMPRP | 0.335
RRIRVRPPRLPRPRPRPSAWPRP | 0.804
RRIRWRPPRLPRPRPRPDCKPRP | -0.0137
RRIRPRPPRLPRPRPRPGQLPRP | -0.0604
RRIRIRPPRLPRPRPRPKGQPRP | 0.143
RRIRSRPPRLPRPRPRPASLPRP | -0.0507
RRIRDRPPRLPRPRPRPHYHPRP | -0.806
RRIRKRPPRLPRPRPRPWQIPRP | 0.141
RRIRDRPPRLPRPRPRPGSLPRP | -0.0141
RRIRCRPPRLPRPRPRPQAHPRP | -0.132
RRIRKRPPRLPRPRPRPNTPPRP | 0.221
RRIRVRPPRLPRPRPRPQYTPRP | -0.526
RRIRTRPPRLPRPRPRPMYLPRP | -0.518
RRIRNRPPRLPRPRPRPCVWPRP | -0.024
RRIRGRPPRLPRPRPRPGIMPRP | 0.374
RRIRPRPPRLPRPRPRPCVKPRP | -0.139
RRIRFRPPRLPRPRPRPCVTPRP | -0.492
RRIRYRPPRLPRPRPRPPGQPRP | 0.0011
RRIRVRPPRLPRPRPRPPYFPRP | 0.0499
RRIRSRPPRLPRPRPRPGVVPRP | 0.295
RRIRTRPPRLPRPRPRPWGVPRP | -0.0284
RRIRMRPPRLPRPRPRPKPGPRP | 1.31
RRIRVRPPRLPRPRPRPYIWPRP | -0.504
RRIRCRPPRLPRPRPRPGRVPRP | 0.288
